{"source": "patent US20110059013A1", "about": "“ANTI-ROBO4 ANTIBODIES AND USES THEREFOR” (Genentech, Inc., priority 2007, published 2011)", "key": {"HUVEC": {"tested_on": "HUVEC", "assay": "HUVEC cellular migration assay", "assay_type": "cell-based, human", "protocol": "Robo4-Fc and Robo4-His were contacted with vascular ECs using a HUVEC migration assay and in the presence or absence of VEGF.\nEndothelial cell migration was not blocked by anti-Robo4 antibody in an in vitro assay using human umbilical vascular endothelial cells (HUVEC) cellular migration assay. HUVECs endogenously express human Robo4. The assay was performed as follows. HUVECs were pre-incubated for 2 hours with VEGF."}, "UNC5B": {"biological_target": "T1, UNC5B (Homo sapiens, UniProt Q8IZJ1)", "T1 construct": "extracellular domain of UNC5B fused to an Fc region; Fc region", "T1 sequence (Q8IZJ1 27-377 limits assumed, species assumed)": "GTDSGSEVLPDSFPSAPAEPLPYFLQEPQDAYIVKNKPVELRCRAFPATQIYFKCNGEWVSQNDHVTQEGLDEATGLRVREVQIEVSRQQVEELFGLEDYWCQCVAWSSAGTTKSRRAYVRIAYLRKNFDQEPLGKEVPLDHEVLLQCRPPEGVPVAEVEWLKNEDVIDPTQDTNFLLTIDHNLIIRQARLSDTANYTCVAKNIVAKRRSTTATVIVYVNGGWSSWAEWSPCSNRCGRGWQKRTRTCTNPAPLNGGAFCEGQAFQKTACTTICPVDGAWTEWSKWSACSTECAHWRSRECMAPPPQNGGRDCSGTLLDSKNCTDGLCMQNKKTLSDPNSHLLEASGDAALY", "assay": "SPR binding to immobilized UNC5B-Fc", "protocol": "It has been shown that netrin binding to members of the uncoordinated-5 (UNC5) family of receptors (UNC5A, B, C, and D) results in neural axon […] (Klagsbrun, M. and Eichmann, A., Cytokine & Growth Factor Reviews 16(4-5):535-548 (2005)). Netrin-UNC5B interaction has been implicated in angiogenesis (Klagsbrun, M. and Eichmann, A., supra (2005) and Lu, X. et al., Nature 432:179-186 (2004)). The interaction of Robo4 with UNC5B in vitro was determined by SPR binding measurements in which UNC5B-Fc fusion protein (extracellular domain of UNC5B fused to an Fc region) was immobilized on a chip and soluble Robo4-Fc or Robo4-His was allowed to interact with it at different concentrations."}}}
{"molecule": "Robo4-His: soluble Robo4 extracellular domain fused to a C-terminal Histidine tag (protein) QDSPPQILVHPQDQLFQGPGPARMSCQASGQPPPTIRWLLNGQPLSMVPPDPHHLLPDGTLLLLQPPARGHAHDGQALSTDLGVYTCEASNRLGTAVSRGARLSVAVLREDFQIQPRDMVAVVGEQFTLECGPPWGHPEPTVSWWKDGKPLALQPGRHTVSGGSLLMARAEKSDEGTYMCVATNSAGHRESRAARVSIQEPQDYRAHHHHHHHH", "values": [{"measurement": "blocking of endothelial cell migration", "setting": "HUVEC; HUVECs pre-incubated with VEGF, 16 hours", "result": "Neither anti-Robo4 nor the soluble Robo4 extracellular domain fusion proteins (Robo4-Fc and Robo4-His) blocked EC migration"}, {"measurement": "induction of EC migration", "setting": "HUVEC; alone, absence of VEGF", "result": "did not induce EC migration"}, {"measurement": "interaction with UNC5B", "setting": "UNC5B", "result": "interacts in vitro with UNC5B"}]}
